Results reported in article PMC9313131.

How the values were obtained:
[1] = molecular target: CDC37 (cell division cycle 37), wild type, full-length (human) (UniProt Q16543); assay: ITC; in most cases sBRAF construct at 350 μM injected into 30 μM CDC37 at 20 °C; 20 mM Tris pH 7.5, 1 mM EDTA, 200 mM NaCl; ITC200
sBRAF L597R (human) = sBRAF L597R (human) (UniProt P15056); assay: SEC; Superdex 200 Increase 10/300 GL; 50 mM HEPES pH 7.5, 300 mM NaCl, 0.5 mM TCEP, 1 mM EDTA; relative molecular mass against gel-filtration standards

Chain of CDC37 (cell division cycle 37), wild type, full-length (human) (Q16543 whole entry): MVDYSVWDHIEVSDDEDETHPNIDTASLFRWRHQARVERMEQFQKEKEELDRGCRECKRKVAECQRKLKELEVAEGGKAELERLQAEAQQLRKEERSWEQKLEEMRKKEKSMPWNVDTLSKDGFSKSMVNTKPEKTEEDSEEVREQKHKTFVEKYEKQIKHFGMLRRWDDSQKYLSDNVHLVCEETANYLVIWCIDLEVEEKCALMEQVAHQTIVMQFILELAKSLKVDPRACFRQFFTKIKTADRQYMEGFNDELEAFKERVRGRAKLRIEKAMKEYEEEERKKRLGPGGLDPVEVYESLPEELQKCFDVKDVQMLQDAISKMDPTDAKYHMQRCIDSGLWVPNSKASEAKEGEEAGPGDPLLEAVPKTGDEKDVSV

Row | Substance | Kd [1] | stoichiometry N (sBRAF L597R (human))
1 | sBRAF F595V (from UniProt P15056 423-723) (domain or fragment) | 1400 nM | –
2 | sBRAF, solubilized version of BRAF kinase domain (residues 423-723), V600 background (from UniProt P15056 423-723) (domain or fragment) | 1000 nM | –
3 | sBRAF D594V (from UniProt P15056 423-723) (domain or fragment) | 1200 nM | –
4 | sBRAF T599W-V600E (from UniProt P15056 423-723) (domain or fragment) | 230 nM | –
5 | sBRAF L597A (from UniProt P15056 423-723) (domain or fragment) | 230 nM | –
6 | sBRAF T599E-V600E-S602D (from UniProt P15056 423-723) (domain or fragment) | 470 nM | –
7 | sBRAF L597R (from UniProt P15056 423-723) (domain or fragment) | – | 2
8 | sBRAF L597R-V600E (from UniProt P15056 423-723) (domain or fragment) | 340 nM | –
9 | sBRAF F595A (from UniProt P15056 423-723) (domain or fragment) | 500 nM | –
